Assay results: patent US20250084127

Columns and labels:
[1] = molecular target: tyrocidine A precursor having EG as a leaving group
[2] = molecular target: T1, crude peptide 1 (EG-surugamide B precursor) (not fully specified)
T1 chain: IAIVKIFL

[3] = molecular target: peptide having a polyethylene glycol (PEG) chain therein (EG at the C terminal)
[4] = molecular target: seco-desprenylagaramide C-EG

B1: recombinant TycC-TE (protein)
chain: MGSSHHHHHHSSGLVPRGSHMGGSHKRFESRYGTAILLNQETARNVFCFTPIGAQSVYYQKLAAEIQGVSLYSFDFIQDDNRMEQYIAAITAIDPSGPYTLMGYSSGGNLAFEVAKELEERGYGVTDIILFDSYWKDKAIERTVAETENDIAQLFAEIGENTEMFNMTQEDFQLYAANEFVKQSFVRKTVSYVMFHNNLVNTGMTTAAIHLIQSELEADEEAPVAAKWNESAWANATQRLLTYSGHGIHSRMLAGDYASQNASILQNILQELFILKGSRSHHHHHH
peptide cyclization (LC-MS of the reaction product) [1]: In an active TycC-TE containing system, it was confirmed that a cyclic peptide, i.e., tyrocidine A, and a small amount of substrate hydrolysate were generated

B2: recombinant WolJ (protein)
chain: MNHKVHHHHHHMSAEAKGRGTTISLPLDRLAKEHSVVGGQLAVHHQGTTHTWAFGEEEHDSGRPVSVGTAFALGSTTKALTATSVLQLVSDGDLDLDSPVKTWIEERGAAADHPALNATLRQLLSHTAGLPSDHFDEEAPSLRRWLAGFLTSGDERARASWPTPGSFSYSNIGYAVAGRAVEAATGLPWWQAVRDYLLTPLGTGIGLLPGAPQDGRPLTAAPGHTAHTTPDGRTVVHVVQSTTDAGSAPSGGLAGSAADLVRFARLHLEEPGDLDRSAVADPSVLREMAQPVTGAEPFGLADGWGLGLGHFGPAGRHWLGHDGTLDGSTCHLRIEPRQGTVVALTTNTSSGLALWDSVVEELRECGLDIGLHAPQPPLAAPAATFAECTGTYRNGDLAVTVGIEDQHIVLGLPNGQRDSVAPHTGLFFSGRPGNASLFLGRFVKDVATGEIRALQYSGRTLTREALTARN
peptide cyclization (LC-MS of the reaction mixture) (seco-wollamide B1-EG): the substrate disappeared by an enzymatic reaction to generate a cyclized product (wollamide B1)

B3: recombinant SurE (protein)
chain: MGSSHHHHHHSSGLVPRGSHMGAEGAERDAVGALFEELVREHRVTGAQLSVYRDGALSEYATGLASVRTGEPVTPRTGFPFGSVTKFLTAELVMQFVCDGDLDLDDPLAGLLPDLGRAAGPPLGTATVRQLLSHTAGVVDSIEYDEMRGPSYRRFAAACARQPALFPPGLAFSYSNTGYCLLGAVIEAASGMDWWTAMDSCLLRPLGIEPAFLHDPRPGQGGAARPVAEGHALRAGGERAEHVDHMASLSLAAAGGLVGSATDLVTAARPHLADRKTFAQHDLLPEDAVLAMRTCVPDAEPFGLADGWGLGLMRHGTGDGAWYGHDGAVGGASCNLRIHPDRSLALALTANSTAGPKLWEALVARLPEAGLDVGHYALPVPDSAPLAPDAGHLGTYANGDLELMVTHDAAGDLFLTRESYSDYRLSLHEDDLFVARSGEPGALPITGRFVREHPAGPVALLQYGGRAMHRL
peptide cyclization (LC-MS of the reaction mixture) [2]: a substrate (crude peptide 1, EG-SB precursor, m/z 960.5 [+H]) disappeared by the action of SurE to generate a cyclic peptide (surugamide B (SB), m/z 898.5 [+H])
peptide cyclization (reverse-phase HPLC / LC-MS) [3]: SurE efficiently circularized also a peptide having a PEG chain therein

B4: SurE (G235L) (protein)
chain: MGSSHHHHHHSSGLVPRGSHMGAEGAERDAVGALFEELVREHRVTGAQLSVYRDGALSEYATGLASVRTGEPVTPRTGFPFGSVTKFLTAELVMQFVCDGDLDLDDPLAGLLPDLGRAAGPPLGTATVRQLLSHTAGVVDSIEYDEMRGPSYRRFAAACARQPALFPPGLAFSYSNTGYCLLGAVIEAASGMDWWTAMDSCLLRPLGIEPAFLHDPRPGQGGAARPVAEGHALRAGGERAEHVDHMASLSLAAALGLVGSATDLVTAARPHLADRKTFAQHDLLPEDAVLAMRTCVPDAEPFGLADGWGLGLMRHGTGDGAWYGHDGAVGGASCNLRIHPDRSLALALTANSTAGPKLWEALVARLPEAGLDVGHYALPVPDSAPLAPDAGHLGTYANGDLELMVTHDAAGDLFLTRESYSDYRLSLHEDDLFVARSGEPGALPITGRFVREHPAGPVALLQYGGRAMHRL
peptide cyclization (LC-MS of the reaction mixture) [4]: the substrate disappeared by an enzymatic reaction to generate a cyclized product (desprenylagaramide C)
